According to doi:10.1101/2020.12.03.410779:

Molecular target: human Retromer complex (Vps35-Vps29-Vps26A) (human) (UniProt Q96QK1)
Assay: ITC

Kd: 0.37 µM
Substance: TBC domain of human TBC1D5 (from UniProt Q92609 1-795) (domain or fragment)
